# Laboratory results as given in patent publication US20240117326.
# T1: NifD-NifK proteins from K. oxytoca (expressed from MIT2.1 in E. coli JM109)
# T1 chain 1: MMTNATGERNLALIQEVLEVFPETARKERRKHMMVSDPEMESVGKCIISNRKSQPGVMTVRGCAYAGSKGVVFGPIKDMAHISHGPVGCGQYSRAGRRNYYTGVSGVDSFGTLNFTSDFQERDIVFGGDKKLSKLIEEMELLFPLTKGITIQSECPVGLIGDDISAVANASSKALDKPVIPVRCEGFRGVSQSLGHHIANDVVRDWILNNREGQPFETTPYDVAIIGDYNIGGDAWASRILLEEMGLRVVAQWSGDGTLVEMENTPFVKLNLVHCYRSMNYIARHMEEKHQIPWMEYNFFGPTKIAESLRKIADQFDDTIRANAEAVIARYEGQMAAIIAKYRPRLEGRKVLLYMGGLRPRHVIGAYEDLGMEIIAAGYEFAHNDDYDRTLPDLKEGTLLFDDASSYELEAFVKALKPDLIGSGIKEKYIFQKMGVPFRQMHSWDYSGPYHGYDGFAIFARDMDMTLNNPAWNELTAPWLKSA
# T1 chain 2: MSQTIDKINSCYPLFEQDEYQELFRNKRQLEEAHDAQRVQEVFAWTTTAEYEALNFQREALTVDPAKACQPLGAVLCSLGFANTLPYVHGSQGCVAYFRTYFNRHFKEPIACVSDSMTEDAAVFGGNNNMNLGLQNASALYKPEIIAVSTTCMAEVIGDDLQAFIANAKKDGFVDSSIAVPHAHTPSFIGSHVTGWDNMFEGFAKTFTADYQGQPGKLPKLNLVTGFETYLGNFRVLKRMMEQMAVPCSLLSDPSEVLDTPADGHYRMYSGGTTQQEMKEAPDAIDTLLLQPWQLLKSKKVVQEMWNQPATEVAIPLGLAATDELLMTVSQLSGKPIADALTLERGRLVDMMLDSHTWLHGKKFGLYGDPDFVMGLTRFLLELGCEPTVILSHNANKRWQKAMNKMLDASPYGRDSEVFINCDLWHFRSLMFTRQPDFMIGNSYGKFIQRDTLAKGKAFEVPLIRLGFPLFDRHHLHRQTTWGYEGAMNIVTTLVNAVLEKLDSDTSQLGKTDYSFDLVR
# Biological target: T1, NifD-NifK proteins from K. oxytoca …
row,Protein,acetylene reduction assay (ethylene production) in E. coli JM109 with modified MIT2.1
1,Carboxydothermus pertinax NifH (Genbank Accession No. WP_075859892) (protein) MTRKIAIYGKGGIGKSTTQQNTAAALAYFYGKKVLIHGCDPKADCTRLILGGKPQETVMDTMRELGEDAVTIDRVVKTGFCGIKCVESGGPEPGVGCAGRGVITAISLMEELGAYTPDLDFIFFDVLGDVVCGGFAMPVREGKAQEIYIVASGEMMALYAANNICRGMVKYAEQSGVRLGGIICNSRNVDGERELMEEFCSKIGTQMIHFIPRDNIVQKAEFNRQTVTQFDPNCNQAQEYRELARKIIENDMFVIPKPMTMDEMENLVIKYGLLE,"none of the JM109 strains carrying the modified MIT2.1 plasmids with the NifH variants reduced acetylene, instead showing the same background level of ethylene production as JM109 carrying the negative control plasmid pB-ori"
2,M laminosus NifH (Genbank Accession No. Q47917) (protein) MTENIRQIAFYGKGGIGKSTTSQNTLAAMAEMGQRIMIVGCDPKADSTRLMLHSKAQTTVLHLAAERGAVEDLELEEVMLTGFRGVKCVESGGPEPGVGCAGRGIITAINFLEENGAYQDLDFVSYDVLGDVVCGGFAMPIREGKAQEIYIVTSGEMMAMYAANNIARGILKYAHSGGVRLGGLICNSRKVDREAELIENLAERLNTQMIHFVPRDNIVQHAELRRMTVNEYAPDSNQSQEYRALAKKIINNTKLTIPTPMEMDELEALLIEYGILDDDTKHADIIGKPAEASAK,"none of the JM109 strains carrying the modified MIT2.1 plasmids with the NifH variants reduced acetylene, instead showing the same background level of ethylene production as JM109 carrying the negative control plasmid pB-ori"
3,C. tepidum NifH (Genbank Accession No. WP_010933198) (protein) MRKVAIYGKGGIGKSTTTQNTVAGLAEAGKKVMVVGCDPKADSTRLLLGGLQQKTVLDTLREEGEEVELEDIIKEGYRNTRCTESGGPEPGVGCAGRGIITSVNLLEQLGAYDDEWELDYVFYDVLGDVVCGGFAMPIRDGKAEEIYIVCSGEMMAMYAANNICKGILKYADAGGVRLGGLICNSRKVDNEREMIEELARRLGTQMIHFVPRDNFVQRAEINRKTVIDFDPTHPQADEYRALAKKIDENKMFVIPKPLEIDELESLLIEFGIAN,"none of the JM109 strains carrying the modified MIT2.1 plasmids with the NifH variants reduced acetylene, instead showing the same background level of ethylene production as JM109 carrying the negative control plasmid pB-ori"
4,H. modesticaldum NifH (Genbank Accession No. WP_012282218) (protein) MRQIAIYGKGGIGKSTTTQNTVSALAEMGKKVMIVGCDPKADSTRLILHSKAQATVMDLAREKGTVEDLELSDVLLTGFADIRCAESGGPEPGVGCAGRGVITAINFLEENGAYTPDLDYVFYDVLGDVVCGGFAMPIRENKAQEIYIVTSGEMMAMYAANNIARGILKYASSGKVRLGGLICNSRKVDKEYELIDELATRLGTQMIHFLPRDNQVQRAELRRMTVIEYSPDHPQADEYRALAKKIDENKKLVIPTPLTMDELEDLLIQYGILEDEETAAAKLG,"none of the JM109 strains carrying the modified MIT2.1 plasmids with the NifH variants reduced acetylene, instead showing the same background level of ethylene production as JM109 carrying the negative control plasmid pB-ori"
5,M. infernus NifH (Genbank Accession No. WP_013099459) (protein) MSFDEIAPNAKKVAIYGKGGIGKSTTTQNTAAALAYYYKLKGMIHGCDPKADSTRMILHGKPQETVMDVLREEGEEGVTLEKVRKVGFCGIYCVESGGPEPGVGCAGRGVITAVNLMKELGGYPDDLDFLFFDVLGDVVCGGFAMPLRDGLAKEIYIVSSGEMMALYAANNIAKGILKYAEQSGVRLGGIICNSRNVDGERELMEEFCDKLGTKLIHFIPRDNIVQKAEFNKMTVVEFAPDHPQALEYKKLGKKIMDNDELVIPTPLSMDELEKLVEKYGLYDK,"none of the JM109 strains carrying the modified MIT2.1 plasmids with the NifH variants reduced acetylene, instead showing the same background level of ethylene production as JM109 carrying the negative control plasmid pB-ori"
6,M thermautotrophicus NifH (Genbank Accession No. AAB86034) (protein) MVRKIAIYGKGGIGKSTTQQNTAAAMSYFHGKNVMIHGCDPKADSTRLILGGKMQTTMMDTLRELGEVACTPDKVIETGFGGIKCVESGGPEPGVGCAGRGVITAITLMERHGVYEKDLDFVFFDVLGDVVCGGFAMPVRDGKAEEIYIVASGEMMALYAANNICKGMVKYARQSGVRLGGIICNSRNVDGEKELLEEFCERIGTQMIHFVPRDNIVQKAEFNKKSVIEFDPECNQSQEYRELARKIIENKDFVIPEPMTMDEMEELVVKYGVMD,"none of the JM109 strains carrying the modified MIT2.1 plasmids with the NifH variants reduced acetylene, instead showing the same background level of ethylene production as JM109 carrying the negative control plasmid pB-ori"
7,Geobacter sp. NifH (Genbank Accession No. WP_015837436) (protein) MRQIAIYGKGGIGKSTTTQNTVAGLASIGKKVMIVGCDPKADSTRLILHAKAQSTVMDLVRELGTVEDLELEDVMKVGYGDVKCVESGGPEPGVGCAGRGVITAINFLEENGAYTPDLDFVFYDVLGDVVCGGFAMPIREGKAEEIYIVCSGEMMAMYAANNIAKGILKYATSGKVRLAGLICNARKTDKEYELIDALAKKLGTQMIHFVPRDNQVQRAELRRMTVIEYSPEHPQAQEYRTLAQKIADNKMLVVPTPLEMEELEDLLMEFGIMEAEDESIVGVAEAAAV,"none of the JM109 strains carrying the modified MIT2.1 plasmids with the NifH variants reduced acetylene, instead showing the same background level of ethylene production as JM109 carrying the negative control plasmid pB-ori"
